The results in this text go back to patent publication US20180280528A1, “ANTIFOLATE CONJUGATES FOR TREATING INFLAMMATION” (ENDOCYTE, INC., priority 2015, published 2018).

Data set [1] in a line: Pharmacokinetics in rats. Conditions: female, Lewis, rat, in vivo, sc, 500 nmol/kg; for AUC(0-inf): AUCinf. The procedure:
Each rat was used for collection of blood samples for a maximum of 4 time points. […] The samples were centrifuged for 3 minutes at 2000×g (Eppendorf 5417R centrifuge) to obtain plasma. The plasma samples were stored at −80° C. until LC-MS/MS analysis.
LC-MS/MS analysis utilized a Waters Acquity UPLC system paired with a Waters Quattro Premier XE tandem quadrupole mass spectrometer operating in ESI positive mode. Prior to injection, K3EDTA plasma samples were processed using a Phenomenex Strata X-A solid phase extraction (SPE) plate. All plasma samples were fortified with N-Maleoyl-β-alanine, mannitol, and acetic acid. Briefly, 50 μL of plasma diluted with 50 μL of internal standard solution and 500 μL 1000:4:1.5 water:ammonium hydroxide:formic acid was mixed and loaded onto a preconditioned Strata X-A SPE plate. Aqueous and organic washes were then applied followed by elution of all analytes with 300:200:7.5 methanol:water:formic acid. The samples were evaporated until approximately 30 μL remained in all wells and 30 μL of 9:1 water:ammonium hydroxide was then added. Finally, the plate was sealed, mixed, and centrifuged prior to transfer to the 2-8° C. Acquity autosampler. Note: During EC1669 analysis, EC0470 was converted to a hydrazone product for bioanalysis. Acetone (500 μL) was added to all samples after the first evaporation step followed by sealing all wells and heating at 50° C. for one hour. After this step, the acetone was evaporated and the extraction completed as described above.
A 10 μL sample volume was applied to the Waters BEH Shield RP18 100×2.1 mm, […] UPLC column operating at a flow rate of 0.4 mL/min while being maintained at 45° C. A gradient between mobile phase A (1000:4:1.5 water:ammonium hydroxide:formic acid) and mobile phase B (acetonitrile) was used to separate the analytes. The gradient was held at 2% B for the first 30 seconds of the chromatographic run followed by increasing to 20% B by 2.5 minutes. A rapid gradient from 60-90% B is then used to clean the column prior to equilibration at 2% B to complete the 4 minute run cycle.
For EC1669 MS/MS analysis, EC1669 and its known major metabolites, EC1886 and […], were optimized and monitored. […] In all cases, internal standard response was used to generate response ratios for each analyte. When calibrated, data was regressed using MassLynx 4.1 software. The table below lists transitions for analytes and internal standards monitored for LC-MS/MS bioanalysis.

A short description of data set [2]: Release of aminopterin in rat hepatic cytosol. Conditions: 5% rat liver cytosol, 1 hour; for pH dependence of aminopterin release from the conjugate: pH 4.5, 6.0, 7.4, 37° C. Type of data set: in vitro ADME. How it is done: (§1) EC2319 and EC1669 were incubated in 5% rat, dog, and human hepatic cytosol at different pH's to look at release of aminopterin from these conjugates. Liver cytosols from male Sprague-Dawley rats (Lot No. 1110428), male beagle dogs (Lot no. 1310024), and male humans (Lot No. 0710493), all containing 10 mg/mL protein, were obtained from Xenotech LLC (Lenexa, Kans.). These were diluted 20× in either 0.5 M sodium acetate buffer, pH 4.5, 0.5 M sodium acetate buffer, 6.0, or 0.5 M potassium phosphate buffer, pH 7.4 in a final volume of 500 μL. Reactions were initiated by the addition of 1 μL of either EC2319 or EC1669 and the reaction mixtures incubated at 37° C. for 1 hour. At the end of the incubation, a 100 μL aliquot was withdrawn into a cluster tube and the reaction was terminated by the addition of 5 μL of stabilizer solution (containing 8.5 mg/ml N-Maleoyl-β-alanine, 20 mg/mL mannitol and 0.075% acetic acid) and 100 μL of acetonitrile containing d5-aminopterin. The tubes were vortexed and then centrifuged at 4000 rpm for 10 minutes (Eppendorf centrifuge 5810R). 150 μL of the supernatant was transferred to 96-well plates and the acetonitrile evaporated off under nitrogen at 35° C. for 5 minutes. The extract was diluted with 50 μL of mobile phase A. The plate was vortexed on a VX-2500 multi-tube vortexer (VWR International, Radnor, Pa.) and the extract analyzed by LC-MS/MS.

Data set [3] is described as follows: Release of aminopterin in human hepatic cytosol. Conditions: 5% human liver cytosol, 1 hour; for pH dependence of aminopterin release from the conjugate: pH 4.5, 6.0, 7.4, 37° C. Type of data set: in vitro ADME. The procedure:
as §1

Data set [4] can be described thus: Incubation with RAW264.7 cell lysates. The format is in vitro ADME, mouse. As to conditions: RAW264.7 lysate, pH 4.5, 37° C., 2 hours. The procedure: To 100 μL AIA rat macrophage, RAW264.7 or THP-1 FRβ cell lysates (each containing 10 million cells/mL 0.1 M sodium acetate, Ph 4.5) was added 2 μL of a 50 μM solution of EC2319 or EC1669 (Endocyte, Inc.). The solutions were incubated at 37° C. in a heat block (VWR International, Radnor, Pa.) for 2 hours. The reaction was terminated by the addition of 5 µL of stabilizer solution and 100 μL of acetonitrile containing d5-aminopterin (Endocyte, Inc.). The rest of the workup is as described above.

Data set [5] in a line: Plasma protein binding by ultrafiltration, rat plasma. The format is in vitro ADME. Conditions: 500 nM. The procedure:
EC2319 and EC1669 plasma protein binding was evaluated by ultra filtration using VWR 30K MWCO modified PES filters. 250 μL of 500 nM EC2319 or EC1669 in K3EDTA plasma incubated at 37° C. was added to the upper filter vessel. 50 μL was immediately removed as the donor plasma sample and aliquoted into a clean 1.2 mL plate. […] An aliquot of […] plasma ultrafiltrate was then added to the 1.2 mL plate as the receiver sample. To each plasma sample, 50 μL of plasma ultrafiltrate was added, and each ultrafiltrate sample received 50 μL of plasma to mitigate matrix effects. N-Maleoyl-β-alanine, mannitol, and acetic acid were added at the end of each experiment to stabilize the samples prior to LC-MS/MS analysis.

What is called Cmax is the highest concentration seen after dosing. The Tmax is the time from dosing to the highest level. Broadly, the half-life is the time in which the quantity being followed falls by half. A low value points to fast loss. A word on the AUC(0-inf): it is the area under the concentration-time curve extrapolated to infinity. What is called AUC(0-t) is the area under the concentration-time curve up to a stated or last time point. A higher AUC(0-t) goes with more exposure.

For `N=c1[nH]c(N)nc2ncc(CNc3ccc(C(=O)N[C@@H](CCC(=O)NNC(=O)OCCSSC[C@@H](NC(=O)[C@H](CCC(=O)NC[C@H](O)[C@@H](O)[C@H](O)[C@H](O)CO)NC(=O)[C@@H](CCC(=O)O)NC(=O)[C@H](CCC(=O)NC[C@H](O)[C@@H](O)[C@H](O)[C@H](O)CO)NC(=O)[C@@H](CCC(=O)O)NC(=O)[C@H](CCC(=O)NC[C@H](O)[C@@H](O)[C@H](O)[C@H](O)CO)NC(=O)CC[C@H](NC(=O)c4ccc(NCc5cnc6nc(N)[nH]c(=O)c6n5)cc4)C(=O)O)C(=O)O)C(=O)O)cc3)nc12` [EC1669, reference compound], in data set [1], the concentration peaked (Cmax) at 472 nM, the Tmax was 30 min and the half-life is 27.8 min. For the same compound, the AUC(0-inf) in data set [1] (rat plasma, EC1669 dosed SC 500 nmol/kg) came to 0.86 µM·h. The compound also gave an exposure AUC(0-t) in data set [1] (AUClast, rat plasma, EC1669 dosed SC 500 nmol/kg) of 0.857 µM·h. The “pH dependence of aminopterin release from the conjugate” value (“pH dependence of aminopterin release” for short) in data set [2] is “broad pH specificity”. In data set [3], the “pH dependence of aminopterin release” value is “highest at pH 4.5”. Also, the aminopterin release result in data set [4] was “greater from EC1669 than from EC2319”. In addition, in data set [5], the plasma protein binding entry is recorded as “high plasma protein binding”.

`COC(=O)[C@H](CSSC(C)(C)[C@H](NC(=O)[C@H](CCC(=O)NC[C@H](O)[C@@H](O)[C@H](O)[C@H](O)CO)NC(=O)[C@H](CCC(=O)O)NC(=O)[C@H](CCC(=O)NC[C@H](O)[C@@H](O)[C@H](O)[C@H](O)CO)NC(=O)[C@H](CCC(=O)O)NC(=O)[C@H](CCC(=O)NC[C@H](O)[C@@H](O)[C@H](O)[C@H](O)CO)NC(=O)CC[C@H](NC(=O)c1ccc(NCc2cnc3nc(N)[nH]c(=O)c3n2)cc1)C(=O)O)C(=O)O)NC(=O)CC[C@H](NC(=O)c1ccc(NCc2cnc3nc(N)nc(N)c3n2)cc1)C(=O)O` [EC2319] came in with an area under the curve AUC(0-inf) in data set [1] (rat plasma, EC2319 dosed SC 500 nmol/kg) of 1.02 µM·h. Moreover, the “magnitude of aminopterin release” value in data set [2] (37° C.) and in data set [3] (37° C.) was “lower than that from EC1669” in each case. For the same compound, the figures for the “pH dependence of aminopterin release” value in data set [2] and in data set [3] were “broad pH specificity” and “highest at pH 4.5”, respectively. Also, in data set [4], the aminopterin release result was “aminopterin release was observed”. In addition, the plasma protein binding result in data set [5] was “higher plasma protein binding than did EC1669”.
